Test results taken from doi:10.1101/2020.06.23.166439.

Target: tail tube protein (TTP) gp17.1 of bacteriophage SPP1 (bacteriophage SPP1)
Assay: cryo-EM structure + other: solid-state NMR

“tail tube protein (TTP) gp17.1 of bacteriophage SPP1 (natural protein)” showed a stoichiometry N of 6.
